According to publication PMC3919625:

Target: 2G12 IgG monomer (human)
Test: SEC

- stoichiometry N: 3
Substance: 2G12 IgG monomer (antibody)
